Measured values as given in publication PMC2832797 (Biochemistry, 2010).

Molecular target: N-terminal His-tagged ubiquitin (15N-labelled) (UniProt P0CG48 1-76, 15N-labelled)
Test: NMR titration

B1: N-terminal His-tagged human alpha4 (amino acid residues 1-222) (domain or fragment, UniProt P78318 1-222, looked up)
chain: MAAEDELQLPRLPELFETGRQLLDEVEVATEPAGSRIVQEKVFKGLDLLEKAAEMLSQLDLFSRNEDLEEIASTDLKYLLVPAFQGALTMKQVNPSKRLDHLQRAREHFINYLTQCHCYHVAEFELPKTMNNSAENHTANSSMAYPSLVAMASQRQAKIQRYKQKKELEHRLSAMKSAVESGQADDERVREYYLLHLQRWIDISLEEIESIDQEIKILRERD
Kd: > 100 µM
